Molecular target: human CD3ε expressed on Jurkat T cells (clone E6-1) as part of TCR-CD3 complexes (human) (UniProt P07766)
Test: cell-based or functional assay

Chain of human CD3ε expressed on Jurkat T cells (clone E6-1) as part of TCR-CD3 complexes (human) (P07766 23-207, one chain of several): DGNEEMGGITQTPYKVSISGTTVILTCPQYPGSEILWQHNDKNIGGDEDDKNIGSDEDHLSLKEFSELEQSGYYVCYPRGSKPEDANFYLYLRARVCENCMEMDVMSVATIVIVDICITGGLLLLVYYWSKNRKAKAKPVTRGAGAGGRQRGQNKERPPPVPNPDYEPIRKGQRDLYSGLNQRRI

Substance: biotin anti-human CD3ε (OKT3) antibody coated on M280 streptavidin Dynabeads
- expansion of Jurkat cells during 48 hours of culture (hemocytometer count): 1.9 times
